Here are results for 21 molecules from patent US20100183625A1 (published 2010).

The target in experiment [1] is T1, human plasma kallikrein (human, UniProt P03952 20-390; P03952 391-638).
T1 construct: also called pKal; human pKal
The experiment in a line: ELISA; signal on biotinylated plasma kallikrein divided by signal on streptavidin background. The source says:
Abbreviations used: “T/B” is the ELISA signal obtained using of the “target” (biotinylated plasma kallikrein) divided by the ELISA signal of the “background” (streptavidin); both of which were coated on microtiter plates. “nd” is not determined. The symbol “q” refers to the amber suppressible stop codon (TAG), which is translated as glutamine (Q) in strains of E. coli such as the TG1 cells that were used to express the Fab fragments.

The target in experiment [2] is T1, human plasma kallikrein. The experiment in a line: apparent Ki (Ki,app), inhibition of human pKal activity.

Residue numbers refer to the chain shown, from its start. A value given as a limit tells only on which side of the number the result lay.

T1 sequence (P03952 20-390, chain 1 of 2): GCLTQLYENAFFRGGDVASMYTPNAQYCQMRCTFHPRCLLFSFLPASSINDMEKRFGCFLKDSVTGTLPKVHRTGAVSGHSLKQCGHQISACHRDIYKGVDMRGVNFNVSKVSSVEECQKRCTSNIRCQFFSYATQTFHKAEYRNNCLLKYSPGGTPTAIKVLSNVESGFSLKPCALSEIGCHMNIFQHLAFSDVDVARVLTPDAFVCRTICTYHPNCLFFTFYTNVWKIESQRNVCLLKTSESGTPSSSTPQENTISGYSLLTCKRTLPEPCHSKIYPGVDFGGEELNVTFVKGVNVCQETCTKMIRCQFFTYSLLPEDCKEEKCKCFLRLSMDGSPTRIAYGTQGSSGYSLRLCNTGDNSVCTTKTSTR
T1 sequence (P03952 391-638, chain 2 of 2): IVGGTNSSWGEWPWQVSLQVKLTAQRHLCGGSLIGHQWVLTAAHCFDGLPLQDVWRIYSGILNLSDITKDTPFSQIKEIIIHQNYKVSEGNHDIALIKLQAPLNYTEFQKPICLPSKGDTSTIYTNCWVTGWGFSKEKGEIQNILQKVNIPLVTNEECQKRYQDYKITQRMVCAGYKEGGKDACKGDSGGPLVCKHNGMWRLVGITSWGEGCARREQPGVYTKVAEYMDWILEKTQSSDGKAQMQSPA

B1: M142-H08 (antibody, V domains shown)
VH: EVQLLESGGGLVQPGGSLRLSCAASGFTFSAYSMIWVRQAPGKGLEWVSYIRPSGGRTTYADSVKGRFTISRDNSKNTLYLQMNSLRAEDTAVYYCARGGLLLWFRELKSNYFDYWGQGTLVTVSS
VL: DIQMTQSPSSLSAFVGDRVTITCRASQPIDNYLNWYHQKPGKAPKLLIYAASRLQSGVPSRLSGSGFGTDFTLTISSLQPEDFGNYYCQQSYTVPYTFGGGTKVEIR
In the case of B1, the “ELISA (T/B)” value with human plasma kallikrein [1] is 29.9 T/B ratio.

B2: M110-C12 (antibody, V domains shown)
VH: EVQLLESGGGLVQPGGSLRLSCAASGFTFSYYEMDWVRQAPGKGLEWVSGISSSGGHTAYADSVKGRFTISRDNSKNTLYLQMNSLRAEDTATYYCARERRSSSRARYYYGMDVWGQGTTVTVSS
VL: DIQMTQSPLSLSVTPGEPASISCRSSLSLLHSNGYNYLDWYVQRPGQSPQLLMYLSSTRASGVPDRFSGSGSGTDFTLEISRVEAEDVGVYYCMQPLETPPTFGGGTKVEIK
As to B2, the “ELISA (T/B)” value with human plasma kallikrein [1] is 2.4 T/B ratio.

B3: M73-D06 (antibody, V domains shown)
VH: EVQLLESGGGLVQPGGSLRLSCAASGFTFSRYEMYWVRQAPGKGLEWVSSISSSGGPTAYADSVKGRFTISRDNSKNTLYLQMNSLRAEDTAMYYCAKGTPKWELLLRSIYIENAFDIWSQGTMVTVSS
VL: QSELTQPPSASETPSQRVTISCSGSSSNIGSNTVSWFQQLPGSAPRLLIYNDHRRPSGVPDRFSGSKSGTSASLVISGLQSQDEADYYCSAWDDSLNGVVFGGGTKLTVL
Take B3: the “ELISA (T/B)” value in the experiment with human plasma kallikrein [1] worked out at 4 T/B ratio.

B4: M8-A09 (antibody, V domains shown)
VH: EVQLLESGGGLVQPGGSLRLSCAASGFTFSTYFMLWVRQAPGKGLEWVSSIYPSGGNTVYADSVKGRFTISRDNSKNTLYLQMNSLRAEDTAVYYCARAASPVRNYYYYGMDVWGQGTTVTVSS
VL: QCELTQPPSESVSPGQTANITCSGDKLGNKYAYWYQQKPGQSPVLVIYQDNNRPSGIPERFSGSNSGNTATLTISGTQAIDEANYYCQAWDSRTVVFGGGTKLTVL
As to B4, the “ELISA (T/B)” value in the experiment with human plasma kallikrein [1] came out at 5.4 T/B ratio.

B5: M12-B05 (antibody, V domains shown)
VH: EVQLLESGGGLVQPGGSLRLSCAASGFTFSWYTMVWVRQAPGKGLEWVSYIYPSGGATFYADSVKGRFTISRDNSKNTLYLQMNSLRAEDTAVYYCAMGSYDYIWGFYSDHWGQGTLVTVSS
VL: QSALTQPPTVSVSPGQTARITCSGNKLGDKYVAWYQQKPGQSPMLVIYQDTKRPSRVSERFSGSNSANTATLSISGTQALDEADYYCQAWDSSIVIFGGGTRLTVL
For B5, the Ki in the experiment with human plasma kallikrein [2] is 4.9 nM. Further, the “ELISA (T/B)” value in the experiment with human plasma kallikrein [1] amounted to 38.4 T/B ratio.

B6: M29-D09 (antibody, V domains shown)
VH: B5 VH
VL: B5 VL with R56A, V57I, S58P
Consider B6, for which the Ki with human plasma kallikrein [2] is 0.7 nM. Also, the “ELISA (T/B)” value in the experiment with human plasma kallikrein [1] was 47.5 T/B ratio.

B7: M35-G04 (antibody, V domains shown)
VH: EVQLLESGGGLVQPGGSLRLSCAASGFTFSYYHMSWVRQAPGKGLEWVSVISPSGGSTKYADSVKGRFTISRDNSKNTLYLQMNSLRAEDTAVYYCARGGSSDYAWGSYRRPYYFDYWGQGTLVTVSS
VL: DIQMTQSPATLSLSPGERATLSCRASQSVSSYLAWYQQKPGQAPRLLIYDASNRATGIPARFSGSGSGTDFTLTISSLEPEDFAVYYCQQRSNWPRGFTFGPGTKVDIK
For B7, the “ELISA (T/B)” value in the experiment with human plasma kallikrein [1] is 11.1 T/B ratio.

B8: M145-D01 (antibody, V domains shown)
VH: B7 VH
VL: B7 VL
On to B8, for which the “ELISA (T/B)” value in the experiment with human plasma kallikrein [1] is 6.2 T/B ratio.

B9: M161-C11 (antibody, V domains shown)
VH: EVQLLESGGGLVQPGGSLRLSCAASGFTFSDYAMKWVRQAPGKGLEWVSSISSSGGVTQYADSVKGRFTISRDNSKNTLYLQMNSLRAEDTAVYYCAREEDYSSSWYSRRFDYYYGMDVWGQGTTVTVSS
VL: QSALTQPPSVSVSPGQTASITCSGDKLGDKYVSWYQQRPGQSPVLVIYQDTKRPSGIPERFSGSNSGNTATLTISGTQAVDEADYYCQAWDSSTYVFGGGTKVTVL
On to B9, for which the “ELISA (T/B)” value with human plasma kallikrein [1] was determined as 41.8 T/B ratio.

B10: M162-A04 (antibody, V domains shown)
VH: EVQLLESGGGLVQPGGSLRLSCAASGFTFSHYIMMWVRQAPGKGLEWVSGIYSSGGITVYADSVKGRFTISRDNSKNTLYLQMNSLRAEDTAVYYCAYRRTGIPRRDAFDIWGQGTMVTVSS
VL: DIQMTQSPSTLSASVGDRVTITCRASQSISSWLAWYQQKPGKAPNLLIYKASTLESGVPSRFSGSGSGTEFTLTISSLQPDDFATYYCQQYNTYWTFGQGTKVEIK
Turning to B10, in the experiment with human plasma kallikrein [1], the “ELISA (T/B)” value turned out to be 11.4 T/B ratio.

B11: M152-A12 (antibody, V domains shown)
VH: EVQLLESGGGLVQPGGSLRLSCAASGFTFSPYFMGWVRQAPGKGLEWVSGIGPSGGSTTYADSVKGRFTISRDNSKNTLYLQMNSLRAEDTAVYYCAREGPPYSSGWYRGLRQYHFDYWGQGTLVTVSS
VL: DIQMTQSPSSLSASVGDRVTITCRASQSISSYLSWYQQRPGKAPNLLIYAASSLQSGVPSRFSGSGSGTDFTLTISSLQPEDFATYYCQQSISIPRTFGQGTKVEVK
For B11, the “ELISA (T/B)” value in the experiment with human plasma kallikrein [1] was found to be 19 T/B ratio.

B12: M160-G12 (antibody, V domains shown)
VH: EVQLLESGGGLVQPGGSLRLSCAASGFTFSHYLMTWVRQAPGKGLEWVSYISPSGGHTIYADSVKGRFTISRDNSKNTLYLQMNSLRAEDTAVYYCARVARGIAARSRTSYFDYWGQGTLVTVSS
VL: DIQMTQSPSFLSASVGDRVTITCRASQGISSYLAWYQQKPGKAPKLLIYAASTLQSGVPSRFSGSGSGTEFTLTISSLQPEDFATYYCQQLNSYPLTFGGGTKVEIK
As for B12, the “ELISA (T/B)” value with human plasma kallikrein [1] came out at 38.3 T/B ratio.

B13: M7-E07 (antibody, V domains shown)
VH: EVQLLESGGGLVQPGGSLRLSCAASGFTFSWYLMIWVRQAPGKGLEWVSYIYPSGGFTYYADSVKGRFTISRDNSKNTLYLQMNSLRAEDMAVYYCARTEGPLSWGYGMDVWGQGTTVTVSS
VL: not shown
Turning to B13, the “ELISA (T/B)” value with human plasma kallikrein [1] was 45.7 T/B ratio.

B14: M27-E05 (antibody, V domains shown)
VH: B13 VH
VL: not shown
Consider B14, for which the “ELISA (T/B)” value in the experiment with human plasma kallikrein [1] is 41.3 T/B ratio.

B15: M7-B04 (antibody, V domains shown)
VL: QSALTQPASVSGSPGQSITISCTGTNSDVGNYNLVSWYQQHPGEAPKLLIYEVNKRPSGVSNRFSGSKSGNTASLTISGLQAEDEADYLCCSYAGNRNFYVFGAGTKVTVL
VH: EVQLLESGGGLVQPGGSLRLSCAASGFTFSWYSMVWVRQAPGKGLEWVSSISPSGGLTNYADSVKGRFTISRDNSKNTLYLQMNSLRAEDTAVYYCARHTAARPFYYYYMDVWSKSTTVTVSSASTKGPSVFPLAPSSKS
Turning to B15, in the experiment with human plasma kallikrein [2], the Ki was determined as 54 nM. In addition, in the experiment with human plasma kallikrein [1], the “ELISA (T/B)” value stood at 4.1 T/B ratio.

B16: M146-E12 (antibody, V domains shown)
VH: EVQLLESGGGLVQPGGSLRLSCAASGFTFSRYIMHWVRQAPGKGLEWVSSISPSGGLTSYADSVKGRFTISRDNSKNTLYLQMNSLRAEDTAVYYCAREFENAYHYYYYGMDVWGQGTTVTVSS
VL: DIQMTQSPSSLSASVGDRVTITCRASGDIGNALGWYQQKPGKAPRLLISDASTLQSGVPLRFSGSGSGTEFTLTISSLQPEDFATYYCLQGYNYPRTFGQGTKLEIR
Take B16: the “ELISA (T/B)” value with human plasma kallikrein [1] amounted to 40.6 T/B ratio.

B17: M10-F10 (antibody, V domains shown)
VH: EVQLLESGGGLVQPGGSLRLSCAASGFTFSFYNMNWVRQAPGKSLEWVSSISPSGGETNYADSVKGRFTISRDNSKNTLYLQMNSLRAEDTAVYYCARGGGAYRNNWWGGFDIWGLGTMVTVSS
VL: DIQMTQSPSSLSASVGDRVTITCRASQSISVYLNWYQHKPGKAPKLLIYGASNLQFGVPSRFSGSGYGTDFTLTISSLQPEDFATYHCQQTFSLFTFGGGTKVEIK
With B17, the Ki with human plasma kallikrein [2] was under 100 nM. The “ELISA (T/B)” value with human plasma kallikrein [1] stood at 39.2 T/B ratio.

B18: M6-D09 (antibody, V domains shown)
VH: EVQLLESGGGLVQPGGSLRLSCAASGFTFSFYYMVWVRQAPGKGLEWVSVIYPSGGITVYADSVKGRFTISRDNSKNTLYLQMNSLRAEDTAVYYCARDKWAVMPPYYYYAMDVWGQGTTVTVSS
VL: DIQMTQSPSSLSASVSDRVTITCRASQSIRNYLNWYQQKPSKAPNLLIYAASTLQSGVPARFSGSGSGTDFTLTISSLQPEDFATYYCQQLSGYPHTFGQGTKLEIK
Consider B18, for which the Ki in the experiment with human plasma kallikrein [2] came to 5.9 nM. Also, the “ELISA (T/B)” value with human plasma kallikrein [1] came out at 39.9 T/B ratio.

B19: M38-F02 (antibody, V domains shown)
VH: EVQLLESGGGLVQPGGSLRLSCAASGFTFSYYMMVWVRQAPGKGLEWVSYIYSSGGHTVYADSVKGRFTISRDNSKNTLYLQMNSLRAEDTAVYYCARDLFLYDFWSKGAFDIWGQGTMVTVSS
VL: QSVLTQPPSVSVSPSQTASITCSGEKLGDKYVSWYQQKPGQSPSLVICEDSRRPSGIPERFSGSNSGNTATLTISGAQPMDEADYYCQAWDSSTAIFGPGTKVTVL
As to B19, in the experiment with human plasma kallikrein [1], the “ELISA (T/B)” value was 33.5 T/B ratio.

B20: M41-A11 (antibody, V domains shown)
VH: EVQLLESGGGLVQPGGSLRLSCAASGFTFSHYRMSWVRQAPGKGLEWVSSIYPSGGRTVYADSVKGRFTISRDNSKNTLYLQMNSLRAEDTAVYYCAKDKFEWRLLFRGIGNDAFDIWGQGTMVTVSS
VL: QSVLTQPPSVSVSPGQTASITCSGDKLGDKYTSWYQQRPGQSPVLVIYQDIKRPSGIPERFSGSNSGNTATLTISGTQAMDEADYYCQAWDSPNARVFGSGTKVTVL
As for B20, in the experiment with human plasma kallikrein [1], the “ELISA (T/B)” value was found to be 28 T/B ratio.

B21: M145-D11 (antibody, V domains shown)
VH: B20 VH
VL: B20 VL
In the case of B21, the “ELISA (T/B)” value in the experiment with human plasma kallikrein [1] was found to be 40 T/B ratio.
